Experiments:
Assay type in all cases: cell-based
[1] = tested on: human breast cancer cells as well as cultured MECs; assay: RANKL mRNA expression in human breast cancer cells and cultured MECs after MPA stimulation in vitro; details: MPA 0.1 μM
Method: a, Analysis of RANKL mRNA expression in human breast cancer cells as well as cultured MECs after MPA stimulation (0.1 μM). Expression was determined by qRT-PCR in unstimulated cells or cells stimulated with MPA for the indicated time points. […] Data were obtained by qRT-PCR and are shown as fold change compared to MCF10A (b) and purified primary MECs (c) (+/−sem) (n=3).
MPA (medroxyprogesterone acetate, a representive progestin) pellets were implanted into female mice and RANKL expression was assayed. […] Since MPA can induce transcription of prolactin and the prolactin receptor in breast cancer cells and prolactin can directly induce RANKL via Jak2/Stat5 signaling, it was tested whether MPA induces RANKL in the mammary gland of prolactin receptor knock-out mice.

[2] = tested on: human SKBR3 breast cancer cells; assay: Soft-Agar Colony Formation Assay (anchorage-independent growth); details: RANKL 1 μg/ml
Method: a, Western blotting for phosphorylated (P) IKKα, total IKKα, phosphorylated (P) p65 NFκB, total p65 NFκB, phosphorylated (P) IκBα, and total IκBα in isolated primary mouse mammary gland epithelial cells (MECs) in response to RANKL stimulation (1 μg/ml). β-actin is shown as loading control. b, Western blotting for IKKα, IKKβ, IKKγ, phosphorylated (P) p65 NFκB, total p65 NFκB, phosphorylated (P) IκBα, and total IκBα in pooled late stage mammary adenocarconimas (n=4 for each lane) that developed in control, RANK^Δmam and IKKΔ^Δmam females. β-actin is shown as loading control c, Expression of RANK, CyclinD1, and p21 mRNA in late stage mammary adenocacinomas that developed in control, RANK^Δmam, and IKKα^Δmam females. Expression was determined by qRT-PCR. Data are mean values+/−sem. n=4 per group. d, Soft-Agar Colony Formation Assay. Growth of human SKBR3 breast cancer cells in soft agar in response to stimulation with RANKL (1 μg/ml) or EGF (100 ng/ml). Anchorage-independent, macroscopic colonies formed after 18 days in culture with RANKL, which was prevented by the decoy receptor OPG (1 μg/ml). […] Apoptosis was detected by immunostaining for active Caspase 3. f, Apoptotic nuclei of epithelial cells (arrows) are shown for representative mammary gland sections. Magnifications×40. g, Quantification of mammary epithelial apoptosis. A minimum of 5000 nuclei was counted for each mouse. […]

[3] = tested on: human SKBR3 breast cancer cells; assay: Western blotting of RANKL-stimulated SKBR3 cells; details: RANKL 1 μg/ml
Method: a, Western blotting for phosphorylated (P) p65 NFκB, total p65 NFκB, phosphorylated (P) IκBα, total IκBα, phosphorylated (P) ERK1/2, total ERK1/2, phosphorylated (P) p38-MAPK, and p38-MAPK in human SKBR3 breast cancer cells in response to RANKL stimulation (1 μg/ml). Data are representative of 3 experiments. b, Growth curve of SKBR3 breast cancer cells cultured in normal growth medium (control, DMEM supplemented with 10% FCS) or in the presence of RANKL (1 μg/ml). Cell numbers were determined by counting live cells (trypan blue-exclusion) over 3 days. c, Onset of palpable mammary tumors in NFATc1^Δmam (n=10) and age matched littermate control (n=16) females treated with MPA pellets and DMBA. Data are shown as percentage of tumor free mice after the last DMBA challenge. No significant difference was found. d, Quantification of NFATc1 mRNA expression in purified mammary epithelial cells (MECs) and MPA-driven mammary tumors from NFATc1^Δmam and littermate control females. mRNA was determined by qRT-PCR. Data are shown as fold change compared to control (+/−sem). n=5 Per group. *P<0.05 (Student's t-test).
The human epithelial breast tumor cell line SKBR3 and primary non-transformed mouse mammary epithelial cells were left untreated or stimulated with recombinant murine RANKL^ref. 9. Adenocarcinomas were isolated from control and mutant mice and total protein lysates prepared. […]

With `CC(=O)O[C@]1(C(C)=O)CC[C@H]2[C@@H]3C[C@H](C)C4=CC(=O)CC[C@]4(C)[C@H]3CC[C@@]21C` [MPA, medroxyprogesterone acetate] the “RANKL mRNA induction in SKBR3 cells” value [1] was “only slightly increased”.

B1: RANKL: recombinant RANKL protein, ligand of RANK, used as stimulus (1 μg/ml or 1 μg i.p.) (protein, UniProt O35235 139-316, looked up)
Tumor necrosis factor ligand …: FSGAPAMMEGSWLDVAQRGKPEAQPFAHLTINAASIPSGSHKVTLSSWYHDRGWAKISNMTLSNGKLRVNQDGFYYLYANICFRHHETSGSVPTDYLQLMVYVVKTSIKIPSSHNLMKGGSTKNWSGNSEFHFYSINVGGFFKLRAGEEISIQVSNPSLLDPDQDATYFGAFKVQDID
B1 was tested, and the “growth of SKBR3 cells in soft agar” value [2] was “induced growth of SKBR3 cells in soft agar” and the “NFκB, p38-MAPKs and ERK activation” value [3] was “induced NFκB, p38-MAPKs and ERK activation”.

From patent US10143747B2, “Breast cancer therapeutics” (IMBA—INSTITUT FÜR MOLEKULARE BIOTECHNOLOGIE GMBH, priority 2010, dated 2018)
